{"source": "patent US7981997B2", "about": "“Growth factor which acts through ErbB-4 RTK” (Yeda Research And Development Co., priority 2000, dated 2011)", "key": {"IgB-2 (soluble ErbB-2)": {"target": "T1, IgB-2 (soluble ErbB-2) (Homo sapiens, UniProt P04626)", "T1 construct": "Recombinant soluble extracellular domains of the four ErbB proteins (denoted IgB-1 through 4); made in house; host or cells: HEK-293 human embryonic kidney cells (conditioned medium)", "test": "Covalent crosslinking of radiolabeled ligands to soluble ErbB-IgG fusion, cell-free", "assay_type": "binding", "settings": "125I-labeled ligand, BS3 crosslinking", "protocol": "(§1) The four soluble forms of ErbB proteins, in the form of IgG fusions (denoted IgB-1 through 4), were separately incubated with the indicated radiolabeled growth factors. Where indicated (lower panel), an excess (100-fold) of unlabeled NRG-4 was co-incubated with the labeled ligand. Following 2 hours at 22° C., the covalent crosslinking reagent bis(sulfosuccinimdyl)-suberate (BS^3) was added (1 mM) and 45 minutes later the ligand-receptor complexes were immunoprecipitated with agarose-immobilized protein-A beads. Arrows mark the locations of monomeric (M) and dimeric (D) receptor complexes.\n(§2) Growth factors were labeled with Iodogen (Pierce) as described (Karunagaran et al., 1995). Chemical crosslinking to Chinese Hamster Ovary (CHO) cells engineered to express different ErbB combinations have been performed essentially as described (Tzahar et al., 1996). Briefly, radiolabeled ligands (at 100 ng/ml) were incubated for 2 hours with cell monolayers at 4 C. The chemical crosslinking agent BS^3 (1 mM) was then added and the cells were further incubated for 45 minutes at 22 C. Mouse antibodies were first coupled to rabbit anti-mouse IgG and to protein A-Sepharose beads, and then they were incubated with cell extracts for 2 hours at 4 C. Immunoprecipitated complexes were then washed three times with ice-cold SBN buffer (1% NP-40; 150 mM NaCl; 10% Glycerol; 1 mM EGTA, in 50 mM Tris-HCl, pH 7.4; 1 ml per wash) prior to heating (5 minutes at 95 C) in gel sample buffer, resolution by gel electrophoresis, transfer to nitrocellulose and autoradiography. For crosslinking with IgBs, after co-incubation of IgB-containing conditioned media with radiolabeled ligands, complexes were immunoprecipitated directly with Sepharose-protein A beads. For ligand displacement analyses, cell monolayers were washed once with binding buffer, and then incubated for 2 hours at 4 C with radiolabeled […] (5 ng/ml) and various concentrations of unlabeled ligands, as indicated. Non-specific binding was determined in the presence of a 100-fold molar excess of the unlabeled ligani. Cells were then washed, lysed in a solution containing 0.1 M NaOH and 0.1% SDS, and radioactivity determined by use of a gamma counter.\n(§3) In the first assay, binding studies in a cell-free system were performed with recombinant soluble forms of all four ErbB proteins. The soluble proteins, denoted IgB-1 through 4, consist of a dimeric fusion between the extracellular domain of the corresponding ErbB and the Fc portion of a human immunoglobulin G (Chen et al., 1996)."}, "IgB-3 (soluble ErbB-3)": {"target": "T2, IgB-3 (soluble ErbB-3) (Homo sapiens, UniProt P21860)", "T2 construct": "Recombinant soluble extracellular domains of the four ErbB proteins (denoted IgB-1 through 4); made in house; host or cells: HEK-293 human embryonic kidney cells (conditioned medium)", "T2 sequence (P21860 20-643 limits assumed)": "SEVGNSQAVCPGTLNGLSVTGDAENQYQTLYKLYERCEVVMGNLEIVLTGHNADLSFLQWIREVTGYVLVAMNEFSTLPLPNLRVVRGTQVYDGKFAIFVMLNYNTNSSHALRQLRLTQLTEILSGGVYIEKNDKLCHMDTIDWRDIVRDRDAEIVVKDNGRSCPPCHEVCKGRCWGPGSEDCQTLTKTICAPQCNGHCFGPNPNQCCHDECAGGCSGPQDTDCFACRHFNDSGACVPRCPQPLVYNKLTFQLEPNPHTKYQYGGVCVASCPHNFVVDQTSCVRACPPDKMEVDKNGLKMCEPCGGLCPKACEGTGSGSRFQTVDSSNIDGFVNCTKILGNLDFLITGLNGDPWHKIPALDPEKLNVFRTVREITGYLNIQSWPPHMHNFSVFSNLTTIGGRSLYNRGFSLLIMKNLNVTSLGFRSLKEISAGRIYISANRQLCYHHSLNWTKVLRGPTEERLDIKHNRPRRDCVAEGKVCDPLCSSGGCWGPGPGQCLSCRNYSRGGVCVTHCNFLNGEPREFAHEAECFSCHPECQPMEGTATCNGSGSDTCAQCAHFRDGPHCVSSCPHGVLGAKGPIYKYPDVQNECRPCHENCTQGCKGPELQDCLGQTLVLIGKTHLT", "test": "Covalent crosslinking of radiolabeled ligands to soluble ErbB-IgG fusion, cell-free", "assay_type": "binding", "settings": "125I-labeled ligand, BS3 crosslinking", "protocol": "as §1, §2, §3"}, "IgB-4 (soluble ErbB-4)": {"target": "T3, IgB-4 (soluble ErbB-4) (Homo sapiens, UniProt Q15303)", "T3 construct": "Recombinant soluble extracellular domains of the four ErbB proteins (denoted IgB-1 through 4); made in house; host or cells: HEK-293 human embryonic kidney cells (conditioned medium)", "T3 sequence (Q15303 26-651 limits assumed)": "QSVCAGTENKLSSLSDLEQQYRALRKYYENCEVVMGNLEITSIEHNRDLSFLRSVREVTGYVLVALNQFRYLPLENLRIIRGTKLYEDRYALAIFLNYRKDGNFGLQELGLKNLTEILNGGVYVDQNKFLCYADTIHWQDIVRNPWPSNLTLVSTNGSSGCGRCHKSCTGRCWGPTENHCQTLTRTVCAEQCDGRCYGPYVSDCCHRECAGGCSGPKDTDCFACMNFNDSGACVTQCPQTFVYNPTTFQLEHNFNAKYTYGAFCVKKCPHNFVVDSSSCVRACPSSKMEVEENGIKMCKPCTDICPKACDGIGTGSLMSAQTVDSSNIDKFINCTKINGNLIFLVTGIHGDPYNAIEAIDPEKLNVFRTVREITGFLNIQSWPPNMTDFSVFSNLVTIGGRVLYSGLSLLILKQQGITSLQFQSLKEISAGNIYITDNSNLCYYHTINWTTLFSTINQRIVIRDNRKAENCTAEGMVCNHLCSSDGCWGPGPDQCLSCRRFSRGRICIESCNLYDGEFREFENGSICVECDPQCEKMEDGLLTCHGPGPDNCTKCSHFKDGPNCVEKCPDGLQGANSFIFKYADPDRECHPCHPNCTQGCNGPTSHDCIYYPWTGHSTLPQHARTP", "test": "Covalent crosslinking of radiolabeled ligands to soluble ErbB-IgG fusion, cell-free", "assay_type": "binding", "protocol": "as §1, §2, §3"}, "[1]": {"tested_on": "180-kDa ErbB receptors and MAP-kinase (Erk-1 and Erk-2) in D24 cells", "test": "Tyrosine phosphorylation and MAPK activation, immunoblotting", "assay_type": "cell-based", "settings": "100 ng/ml, five minutes", "protocol": "(§4) Derivatives of 32D cells expressing ErbB-4, either alone (D4 cells) or in combination with ErbB-2 (D24 cells) were incubated for 5 minutes at 37° C. with either NRG-4 or NRG-1β (each at 100 ng/ml). Whole cell extracts were then prepared, resolved by gel electrophoresis, and transferred to a nitrocellulose filter. The upper portion of the filter was immunoblotted with antibodies to phosphotyrosine (P-Tyr, the 150-200 kDa region is shown) or an antibody directed at the activated doubly phosphorylated form of the MAPK (Erk1 and Erk2, the 40-50 kDa region is shown). Antibodies were incubated with a secondary reagent coupled to horseradish peroxidase, allowing subsequent detection by chemiluminescence.\n(§5) For receptor activation studies, derivatives of the 32D cell line were resuspended in phosphate-buffered solution (PBS) and incubated at 22 C for 15 minutes before adding growth factors and incubating for five minutes at 37 C. Cells were then pelleted and lysed in ice cold solubilization buffer [50 mM Tris-HCl pH 7.5, 150 mM NaCl, 1% Nonidet-P40, 0.5% Na-deoxycholate, 0.1% sodium dodecyl sulfate (SDS), 1.5 mM EDTA, 1.5 mM MgCl2, 2 mM Na-orthovanadate, 1 mM phenylmethylsulfonyl fluoride (PMSF), 10 µg/ml aprotinin and 10 µg/ml leupeptin] and left on ice for 15 minutes. The whole cell extract was then cleared by centrifugation (12,000×g for 10 minutes at 4 C), immediately boiled in reducing gel sample buffer, and resolved by 10% SDS PAGE before being transferred onto nitrocellulose. Filters were blocked in TBST buffer (0.02 M Tris-HCl pH 7.5, 0.15 M NaCl, 0.05% Tween-20) containing 1% milk for 40 minutes at 22 C, blotted with primary antibodies in TBST overnight at 4 C, followed by conjugation with a secondary antibody linked to horseradish peroxidase and subsequent detection by chemiluminescence (Amersham Corp.).\n(§6) Evidently, NRG-4 binds to ErbB-4 and mediates cell proliferation through activation of this receptor. Because other ErbB ligands stimulate cell growth via tyrosine phosphorylation of their respective receptors and activation of the intervening mitogen-activated protein kinase (MAPK) cascade, these two signaling steps were tested in NRG-4-responsive myeloid cells expressing ErbB-4 (D4 and D24 cell lines). Cells were stimulated with 100 ng/ml of activating ligand for five minutes, followed by lysis and analysis by immunoblotting."}, "[2]": {"tested_on": "180-kDa ErbB receptors and MAP-kinase (Erk-1 and Erk-2) in D4 cells", "test": "Tyrosine phosphorylation and MAPK activation, immunoblotting", "assay_type": "cell-based", "settings": "100 ng/ml, five minutes", "protocol": "as §4, §5, §6"}}}
{"molecule": "NRG-4: synthetic refolded mouse EGF-like domain of NRG-4 (residues 4 to 50, SEQ ID NO:2) (peptide, listed as Mus musculus) MPTDHEQPCGPRHRSFCLNGGICYVIPTIPSPFCRCIENYTGARCEEVFLPSSSIPSESNLSAAFVVLAVLLTLTIAALCFLCRKGHLQRASSVQCEISLVETNNTRTRHSHREH", "values": [{"measurement": "binding to IgB-2 (covalent crosslinking signal)", "setting": "IgB-2 (soluble ErbB-2)", "value": "low or no binding"}, {"measurement": "binding to IgB-3 (covalent crosslinking signal)", "setting": "IgB-3 (soluble ErbB-3)", "value": "low or no binding"}, {"measurement": "binding to IgB-4 (covalent crosslinking signal)", "setting": "IgB-4 (soluble ErbB-4); 125I-labeled ligand, BS3 crosslinking", "value": "only weakly"}, {"measurement": "displacement of the radioactive ligand from IgB-4 by unlabeled NRG-4", "setting": "IgB-4 (soluble ErbB-4); unlabeled NRG-4 at 100-fold molar excess", "value": "efficient displacement"}, {"measurement": "activation of MAP-kinase (Erk-1 and Erk-2), D24 cells", "setting": "[1]", "value": "accompanying activation of MAP-kinase"}, {"measurement": "phosphorylation of the 180-kDa ErbB receptors, D24 cells", "setting": "[1]", "value": "stimulated phosphorylation"}, {"measurement": "activation of MAP-kinase (Erk-1 and Erk-2), D4 cells", "setting": "[2]", "value": "accompanying activation of MAP-kinase"}, {"measurement": "phosphorylation of the 180-kDa ErbB receptors, D4 cells", "setting": "[2]", "value": "stimulated phosphorylation"}]}
